Read-outs that look alike come from different tables or passages of the source.
Key:
[1] = molecular target: porcine pancreatic α-amylase (porcine) (UniProt P00690); assay: enzyme inhibition kinetics
[2] = molecular target: human pancreatic α-amylase (human) (UniProt P04746); assay: enzyme inhibition kinetics
HPA = settings: read-out: Ki against HPA, cited from earlier work
[3] = cited from earlier work
[4] = cited from earlier work; remark: listed apart in the source

UniProt P04746, sequence (P04746 16-511): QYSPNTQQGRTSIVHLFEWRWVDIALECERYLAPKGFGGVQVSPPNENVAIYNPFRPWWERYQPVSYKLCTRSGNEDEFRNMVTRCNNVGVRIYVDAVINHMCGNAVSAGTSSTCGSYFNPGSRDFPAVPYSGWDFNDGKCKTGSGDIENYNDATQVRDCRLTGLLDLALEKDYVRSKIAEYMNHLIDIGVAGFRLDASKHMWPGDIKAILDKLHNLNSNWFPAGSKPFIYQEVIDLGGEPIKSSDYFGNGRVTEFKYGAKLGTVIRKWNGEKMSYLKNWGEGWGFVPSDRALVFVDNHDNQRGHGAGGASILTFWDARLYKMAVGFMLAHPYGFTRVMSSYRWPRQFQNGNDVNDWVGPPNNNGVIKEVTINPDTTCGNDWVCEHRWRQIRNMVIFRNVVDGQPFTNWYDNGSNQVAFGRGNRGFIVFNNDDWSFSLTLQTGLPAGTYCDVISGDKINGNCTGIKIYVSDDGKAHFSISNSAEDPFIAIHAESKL
UniProt P00690, sequence (P00690 16-511): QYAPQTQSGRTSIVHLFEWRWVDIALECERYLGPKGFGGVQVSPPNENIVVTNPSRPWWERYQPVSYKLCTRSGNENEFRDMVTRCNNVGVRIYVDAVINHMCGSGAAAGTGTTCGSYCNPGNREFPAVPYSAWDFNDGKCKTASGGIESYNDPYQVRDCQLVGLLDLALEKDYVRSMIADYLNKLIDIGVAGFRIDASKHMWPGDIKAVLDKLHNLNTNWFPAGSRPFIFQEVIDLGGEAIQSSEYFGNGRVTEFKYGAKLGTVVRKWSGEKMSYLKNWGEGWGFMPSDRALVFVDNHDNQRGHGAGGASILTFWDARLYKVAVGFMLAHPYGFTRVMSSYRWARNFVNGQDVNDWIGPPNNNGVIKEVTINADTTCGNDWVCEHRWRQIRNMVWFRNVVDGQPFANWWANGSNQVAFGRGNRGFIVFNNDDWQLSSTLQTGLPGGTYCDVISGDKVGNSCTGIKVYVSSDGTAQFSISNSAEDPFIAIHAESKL

recombinant helianthamide (peptide) showed a Ki [1] of 0.1 nM and a Ki [2] of 0.01 nM.

For Montbretin A [reference compound], the Ki (HPA) is given as 8 nM.

B1: tendamistat: 74-residue peptide with two disulfide bonds from Streptomyces tendae (protein, UniProt P01092 31-104, looked up)
Alpha-amylase inhibitor …: DTTVSEPAPSCVTLYQSWRYSQADNGCAQTVTVKVVYEDDTEGLCYAVAPGQITTVGDGYIGSHGHARYLARCL
For B1, the vulnerability to degradation [3] is given as “vulnerability to degradation”, the Ki (HPA; estimated) is given as 0.009 to 0.2 nM and the immunogenicity ([4]; clinic) is given as “pronounced immunogenicity”. For the same molecule, the “blood plasma glucose levels” value ([4]; clinical trials) was “significant decrease in blood plasma glucose levels”.

Source: publication PMC4819454 (ACS Central Science, 2016)
